Test results taken from paper PMC9482650, “Quantitative fragmentomics allow affinity mapping of interactomes” (Nature Communications, 2022).

target: AHNAK1, Q09666; experiment: holdup assay; design: key: below the threshold = too weak to quantify, mostly under pKd 3.1 to 4; conditions: plain residues with an end cap or a label only (N-terminal biotin on a linker: ado-ado)
Sequence (Q09666 4-100): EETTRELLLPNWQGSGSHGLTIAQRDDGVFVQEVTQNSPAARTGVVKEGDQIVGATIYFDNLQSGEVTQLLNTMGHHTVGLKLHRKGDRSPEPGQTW

Binder | pKd
DTKNYKQTSV [CRIPT, Q9P021] | below the threshold
PSVGSKKTVL [REELD1, A0A1B0GV85] | below the threshold
KSRVAFFEEL [NF2, P35240;P35240-1] | below the threshold

target: Inadl_5, Q8NI35; experiment: holdup assay; design: key: below the threshold = too weak to quantify, mostly under pKd 3.1 to 4; conditions: plain residues with an end cap or a label only (N-terminal biotin on a linker: ado-ado)
Sequence (Q8NI35 673-780): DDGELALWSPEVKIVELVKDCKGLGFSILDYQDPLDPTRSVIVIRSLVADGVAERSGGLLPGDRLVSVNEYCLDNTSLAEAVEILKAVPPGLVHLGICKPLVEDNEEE

Binder | pKd
DTKNYKQTSV [CRIPT, Q9P021] | below the threshold
PSVGSKKTVL [REELD1, A0A1B0GV85] | below the threshold
KSRVAFFEEL [NF2, P35240;P35240-1] | below the threshold

target: T1, MPDZ_5, O75970; experiment: holdup assay; design: key: below the threshold = too weak to quantify, mostly under pKd 3.1 to 4; conditions: plain residues with an end cap or a label only (N-terminal biotin on a linker: ado-ado)
T1 sequence (O75970 695-796, limits assumed, looked up): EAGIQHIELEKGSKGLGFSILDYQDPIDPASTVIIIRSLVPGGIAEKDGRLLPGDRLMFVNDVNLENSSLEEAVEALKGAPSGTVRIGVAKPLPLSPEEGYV

Binder | pKd
DTKNYKQTSV [CRIPT, Q9P021] | below the threshold
PSVGSKKTVL [REELD1, A0A1B0GV85] | below the threshold
KSRVAFFEEL [NF2, P35240;P35240-1] | below the threshold

target: T2, DLG3_2, Q92796; experiment: holdup assay; design: key: below the threshold = too weak to quantify, mostly under pKd 3.1 to 4; conditions: plain residues with an end cap or a label only (N-terminal biotin on a linker: ado-ado)
T2 sequence (Q92796 221-321, limits assumed, looked up): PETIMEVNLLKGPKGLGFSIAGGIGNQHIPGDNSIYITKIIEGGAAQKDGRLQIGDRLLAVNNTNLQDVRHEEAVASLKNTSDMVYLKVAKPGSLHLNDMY

Binder | pKd
DTKNYKQTSV [CRIPT, Q9P021] | 4.61
PSVGSKKTVL [REELD1, A0A1B0GV85] | below the threshold
KSRVAFFEEL [NF2, P35240;P35240-1] | below the threshold

target: TJP1_3, Q07157; experiment: holdup assay; design: key: below the threshold = too weak to quantify, mostly under pKd 3.1 to 4; conditions: plain residues with an end cap or a label only (N-terminal biotin on a linker: ado-ado)
Sequence (Q07157 416-512): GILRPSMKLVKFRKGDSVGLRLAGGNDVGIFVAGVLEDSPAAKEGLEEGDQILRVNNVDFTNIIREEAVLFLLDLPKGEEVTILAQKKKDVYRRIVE

Binder | pKd
DTKNYKQTSV [CRIPT, Q9P021] | below the threshold
PSVGSKKTVL [REELD1, A0A1B0GV85] | below the threshold
KSRVAFFEEL [NF2, P35240;P35240-1] | below the threshold

target: Inadl_3, Q8NI35; experiment: holdup assay; design: key: below the threshold = too weak to quantify, mostly under pKd 3.1 to 4; conditions: plain residues with an end cap or a label only (N-terminal biotin on a linker: ado-ado)
Sequence (Q8NI35 359-469): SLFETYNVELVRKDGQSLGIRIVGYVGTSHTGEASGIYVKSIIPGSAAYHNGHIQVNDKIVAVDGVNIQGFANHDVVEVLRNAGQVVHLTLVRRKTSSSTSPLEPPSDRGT

Binder | pKd
DTKNYKQTSV [CRIPT, Q9P021] | below the threshold
PSVGSKKTVL [REELD1, A0A1B0GV85] | below the threshold
KSRVAFFEEL [NF2, P35240;P35240-1] | 4.28

target: DLG1_3, Q12959; experiment: holdup assay; design: key: below the threshold = too weak to quantify, mostly under pKd 3.1 to 4; conditions: plain residues with an end cap or a label only (N-terminal biotin on a linker: ado-ado)
Sequence (Q12959 457-571): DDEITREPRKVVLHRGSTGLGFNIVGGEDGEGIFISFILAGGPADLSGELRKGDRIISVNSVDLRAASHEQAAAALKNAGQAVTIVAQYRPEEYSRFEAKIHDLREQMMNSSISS

Binder | pKd
DTKNYKQTSV [CRIPT, Q9P021] | 5.26
PSVGSKKTVL [REELD1, A0A1B0GV85] | below the threshold

target: T3, MPDZ_12, O75970; experiment: holdup assay; design: key: below the threshold = too weak to quantify, mostly under pKd 3.1 to 4; conditions: plain residues with an end cap or a label only (N-terminal biotin on a linker: ado-ado)
T3 sequence (O75970 1857-1958, limits assumed, looked up): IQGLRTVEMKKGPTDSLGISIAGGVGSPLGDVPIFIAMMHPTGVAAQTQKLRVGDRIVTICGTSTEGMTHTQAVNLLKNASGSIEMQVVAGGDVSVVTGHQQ

Binder | pKd
DTKNYKQTSV [CRIPT, Q9P021] | below the threshold
PSVGSKKTVL [REELD1, A0A1B0GV85] | below the threshold
KSRVAFFEEL [NF2, P35240;P35240-1] | below the threshold

target: T4, DFNB31_1, Q9P202; experiment: holdup assay; design: key: below the threshold = too weak to quantify, mostly under pKd 3.1 to 4; conditions: plain residues with an end cap or a label only (N-terminal biotin on a linker: ado-ado)
T4 sequence (Q9P202 135-233, limits assumed, looked up): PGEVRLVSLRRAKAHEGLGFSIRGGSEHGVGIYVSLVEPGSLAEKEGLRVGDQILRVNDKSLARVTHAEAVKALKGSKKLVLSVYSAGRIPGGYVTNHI

Binder | pKd
DTKNYKQTSV [CRIPT, Q9P021] | 4.32
PSVGSKKTVL [REELD1, A0A1B0GV85] | below the threshold

target: T5, SIPA1L2, Q9P2F8; experiment: holdup assay; design: key: below the threshold = too weak to quantify, mostly under pKd 3.1 to 4; conditions: plain residues with an end cap or a label only (N-terminal biotin on a linker: ado-ado)
T5 sequence (Q9P2F8 945-1036, limits assumed, looked up): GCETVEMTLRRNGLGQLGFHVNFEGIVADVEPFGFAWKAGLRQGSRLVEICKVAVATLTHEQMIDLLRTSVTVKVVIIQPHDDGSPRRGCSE

Binder | pKd
DTKNYKQTSV [CRIPT, Q9P021] | below the threshold
PSVGSKKTVL [REELD1, A0A1B0GV85] | below the threshold
KSRVAFFEEL [NF2, P35240;P35240-1] | below the threshold

target: T6, SNTG2, Q9NY99; experiment: holdup assay; design: key: below the threshold = too weak to quantify, mostly under pKd 3.1 to 4; conditions: plain residues with an end cap or a label only (N-terminal biotin on a linker: ado-ado)
T6 sequence (Q9NY99 68-166, limits assumed, looked up): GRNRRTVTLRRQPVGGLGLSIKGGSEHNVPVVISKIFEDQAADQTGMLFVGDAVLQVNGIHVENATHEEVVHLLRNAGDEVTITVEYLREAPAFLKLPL

Binder | pKd
DTKNYKQTSV [CRIPT, Q9P021] | 4.37
PSVGSKKTVL [REELD1, A0A1B0GV85] | 3.66

target: T7, DLG3_1, Q92796; experiment: holdup assay; design: key: below the threshold = too weak to quantify, mostly under pKd 3.1 to 4; conditions: plain residues with an end cap or a label only (N-terminal biotin on a linker: ado-ado)
T7 sequence (Q92796 125-227, limits assumed, looked up): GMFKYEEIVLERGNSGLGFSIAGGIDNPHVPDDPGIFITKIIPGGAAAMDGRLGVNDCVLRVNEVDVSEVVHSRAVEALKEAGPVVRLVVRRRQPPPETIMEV

Binder | pKd
DTKNYKQTSV [CRIPT, Q9P021] | 3.69
PSVGSKKTVL [REELD1, A0A1B0GV85] | below the threshold

target: T8, MPDZ_10, O75970; experiment: holdup assay; design: key: below the threshold = too weak to quantify, mostly under pKd 3.1 to 4; conditions: plain residues with an end cap or a label only (N-terminal biotin on a linker: ado-ado)
T8 sequence (O75970 1624-1722, limits assumed, looked up): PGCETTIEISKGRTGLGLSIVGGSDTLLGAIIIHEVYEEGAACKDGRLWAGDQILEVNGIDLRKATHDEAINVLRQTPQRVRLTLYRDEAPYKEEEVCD

Binder | pKd
DTKNYKQTSV [CRIPT, Q9P021] | 3.98
PSVGSKKTVL [REELD1, A0A1B0GV85] | below the threshold
KSRVAFFEEL [NF2, P35240;P35240-1] | below the threshold

target: T9, PDZRN3_1, Q9UPQ7; experiment: holdup assay; design: key: below the threshold = too weak to quantify, mostly under pKd 3.1 to 4; conditions: plain residues with an end cap or a label only (N-terminal biotin on a linker: ado-ado)
T9 sequence (Q9UPQ7 244-349, limits assumed, looked up): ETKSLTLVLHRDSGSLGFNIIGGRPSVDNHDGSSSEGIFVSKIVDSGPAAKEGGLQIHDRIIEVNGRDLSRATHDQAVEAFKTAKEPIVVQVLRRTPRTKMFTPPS

Binder | pKd
DTKNYKQTSV [CRIPT, Q9P021] | 4.12
PSVGSKKTVL [REELD1, A0A1B0GV85] | 3.48

target: T10, LIN7B, Q9HAP6; experiment: holdup assay; design: key: below the threshold = too weak to quantify, mostly under pKd 3.1 to 4; conditions: plain residues with an end cap or a label only (N-terminal biotin on a linker: ado-ado)
T10 sequence (Q9HAP6 88-185, limits assumed, looked up): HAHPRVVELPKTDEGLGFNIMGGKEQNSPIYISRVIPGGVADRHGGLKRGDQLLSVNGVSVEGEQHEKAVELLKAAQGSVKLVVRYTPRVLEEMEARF

Binder | pKd
DTKNYKQTSV [CRIPT, Q9P021] | below the threshold
PSVGSKKTVL [REELD1, A0A1B0GV85] | below the threshold
KSRVAFFEEL [NF2, P35240;P35240-1] | below the threshold

target: NHERF4_2, Q86UT5; experiment: holdup assay; design: key: below the threshold = too weak to quantify, mostly under pKd 3.1 to 4; conditions: plain residues with an end cap or a label only (N-terminal biotin on a linker: ado-ado)
Sequence (Q86UT5 220-308): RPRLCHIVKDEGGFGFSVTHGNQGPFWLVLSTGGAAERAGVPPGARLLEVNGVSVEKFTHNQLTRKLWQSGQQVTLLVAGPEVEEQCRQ

Binder | pKd
DTKNYKQTSV [CRIPT, Q9P021] | below the threshold
PSVGSKKTVL [REELD1, A0A1B0GV85] | below the threshold

target: SNX27, Q96L92; experiment: holdup assay; design: key: below the threshold = too weak to quantify, mostly under pKd 3.1 to 4; conditions: plain residues with an end cap or a label only (N-terminal biotin on a linker: ado-ado)

Binder | pKd
DTKNYKQTSV [CRIPT, Q9P021] | 5.33
PSVGSKKTVL [REELD1, A0A1B0GV85] | 3.71

target: LDB3, O75112; experiment: holdup assay; design: key: below the threshold = too weak to quantify, mostly under pKd 3.1 to 4; conditions: plain residues with an end cap or a label only (N-terminal biotin on a linker: ado-ado)
Sequence (O75112 1-94): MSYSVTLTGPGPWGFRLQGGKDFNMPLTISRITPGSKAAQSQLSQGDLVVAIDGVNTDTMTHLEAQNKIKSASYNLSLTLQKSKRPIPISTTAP

Binder | pKd
DTKNYKQTSV [CRIPT, Q9P021] | below the threshold
PSVGSKKTVL [REELD1, A0A1B0GV85] | below the threshold

target: FRMPD2_3, Q68DX3; experiment: holdup assay; design: key: below the threshold = too weak to quantify, mostly under pKd 3.1 to 4; conditions: plain residues with an end cap or a label only (N-terminal biotin on a linker: ado-ado)
Sequence (Q68DX3 1073-1166): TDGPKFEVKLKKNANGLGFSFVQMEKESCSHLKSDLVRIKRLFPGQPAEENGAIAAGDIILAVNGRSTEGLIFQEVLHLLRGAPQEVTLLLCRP

Binder | pKd
DTKNYKQTSV [CRIPT, Q9P021] | below the threshold
PSVGSKKTVL [REELD1, A0A1B0GV85] | below the threshold
KSRVAFFEEL [NF2, P35240;P35240-1] | below the threshold

target: SCRIB_1, Q14160; experiment: holdup assay; design: key: below the threshold = too weak to quantify, mostly under pKd 3.1 to 4; conditions: plain residues with an end cap or a label only (N-terminal biotin on a linker: ado-ado)
Sequence (Q14160 718-814): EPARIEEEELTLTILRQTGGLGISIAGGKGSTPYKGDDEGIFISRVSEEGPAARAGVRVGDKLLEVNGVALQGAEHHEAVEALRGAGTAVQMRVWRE

Binder | pKd
DTKNYKQTSV [CRIPT, Q9P021] | 4.88
PSVGSKKTVL [REELD1, A0A1B0GV85] | below the threshold

target: NHERF4_4, Q86UT5; experiment: holdup assay; design: key: below the threshold = too weak to quantify, mostly under pKd 3.1 to 4; conditions: plain residues with an end cap or a label only (N-terminal biotin on a linker: ado-ado)
Sequence (Q86UT5 464-550): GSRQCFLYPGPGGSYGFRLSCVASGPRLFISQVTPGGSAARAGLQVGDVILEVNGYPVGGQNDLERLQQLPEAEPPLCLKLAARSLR

Binder | pKd
DTKNYKQTSV [CRIPT, Q9P021] | below the threshold
PSVGSKKTVL [REELD1, A0A1B0GV85] | below the threshold
KSRVAFFEEL [NF2, P35240;P35240-1] | below the threshold

target: T11, NHERF3_3, Q5T2W1; experiment: holdup assay; design: key: below the threshold = too weak to quantify, mostly under pKd 3.1 to 4; conditions: plain residues with an end cap or a label only (N-terminal biotin on a linker: ado-ado)
T11 sequence (Q5T2W1 238-333, limits assumed, looked up): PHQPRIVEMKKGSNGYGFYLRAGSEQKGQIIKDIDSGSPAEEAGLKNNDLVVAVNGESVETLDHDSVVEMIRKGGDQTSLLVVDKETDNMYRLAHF

Binder | pKd
DTKNYKQTSV [CRIPT, Q9P021] | below the threshold
PSVGSKKTVL [REELD1, A0A1B0GV85] | below the threshold
KSRVAFFEEL [NF2, P35240;P35240-1] | below the threshold

target: T12, RAPGEF6, Q8TEU7; experiment: holdup assay; design: key: below the threshold = too weak to quantify, mostly under pKd 3.1 to 4; conditions: plain residues with an end cap or a label only (N-terminal biotin on a linker: ado-ado)
T12 sequence (Q8TEU7 525-625, limits assumed, looked up): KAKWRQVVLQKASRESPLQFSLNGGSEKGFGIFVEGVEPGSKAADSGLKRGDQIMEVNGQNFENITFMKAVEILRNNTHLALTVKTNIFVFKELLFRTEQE

Binder | pKd
DTKNYKQTSV [CRIPT, Q9P021] | below the threshold
PSVGSKKTVL [REELD1, A0A1B0GV85] | below the threshold
KSRVAFFEEL [NF2, P35240;P35240-1] | below the threshold

target: GRID2IP_1, A4D2P6; experiment: holdup assay; design: key: below the threshold = too weak to quantify, mostly under pKd 3.1 to 4; conditions: plain residues with an end cap or a label only (N-terminal biotin on a linker: ado-ado)
Sequence (A4D2P6 1-87): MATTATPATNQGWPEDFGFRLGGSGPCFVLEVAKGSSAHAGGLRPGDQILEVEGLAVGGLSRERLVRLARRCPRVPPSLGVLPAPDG

Binder | pKd
DTKNYKQTSV [CRIPT, Q9P021] | below the threshold
PSVGSKKTVL [REELD1, A0A1B0GV85] | below the threshold
KSRVAFFEEL [NF2, P35240;P35240-1] | below the threshold
